Among the data in publication PMC12041258 are stoichiometry N and Kd values, retold here.

In experiment [1] the target is C. crescentus DriD(78-327) (C. crescentus). Put plainly: SEC. (In general: In gel filtration, larger molecules generally elute earlier.)
Experiment [2] has the same target. Put plainly: SEC. The source holds these as a separate data set.
The target in experiment [3] is C. crescentus DriD DNABD, DriD(1-70) (C. crescentus). Put plainly: MST.

Where two headings read alike, the source gives them in different places.

By stoichiometry N is commonly meant the number of molecules, sites or subunits per partner or assembly. For “C. crescentus DriD(78-327) (domain or fragment)”, the stoichiometry N in experiment [1] and in experiment [2] was 2 in each case. One may read the Kd as the constant that tells how readily two partners part at equilibrium. For “His-tag free C. crescentus DriD(78-327) (domain or fragment)”, the Kd in experiment [3] turned out to be 15 µM.
